According to publication PMC3414502:

Biological target: CPM-PH-PLCß2 (N-terminal PH domain of PLCβ2)
Assay: other fluorescence titration; unlabelled γ-synuclein added in steps to CPM-labelled protein in solution (2 nM CPM-PLCβ2, also 0.5 nM); increase of CPM intensity; 20 mM Hepes pH 7.2, 160 mM NaCl, 1 mM DTT

CPM-PH-PLCß2 (N-terminal PH domain of PLCβ2), sequence (Q00722 whole entry, the tested form may be a part): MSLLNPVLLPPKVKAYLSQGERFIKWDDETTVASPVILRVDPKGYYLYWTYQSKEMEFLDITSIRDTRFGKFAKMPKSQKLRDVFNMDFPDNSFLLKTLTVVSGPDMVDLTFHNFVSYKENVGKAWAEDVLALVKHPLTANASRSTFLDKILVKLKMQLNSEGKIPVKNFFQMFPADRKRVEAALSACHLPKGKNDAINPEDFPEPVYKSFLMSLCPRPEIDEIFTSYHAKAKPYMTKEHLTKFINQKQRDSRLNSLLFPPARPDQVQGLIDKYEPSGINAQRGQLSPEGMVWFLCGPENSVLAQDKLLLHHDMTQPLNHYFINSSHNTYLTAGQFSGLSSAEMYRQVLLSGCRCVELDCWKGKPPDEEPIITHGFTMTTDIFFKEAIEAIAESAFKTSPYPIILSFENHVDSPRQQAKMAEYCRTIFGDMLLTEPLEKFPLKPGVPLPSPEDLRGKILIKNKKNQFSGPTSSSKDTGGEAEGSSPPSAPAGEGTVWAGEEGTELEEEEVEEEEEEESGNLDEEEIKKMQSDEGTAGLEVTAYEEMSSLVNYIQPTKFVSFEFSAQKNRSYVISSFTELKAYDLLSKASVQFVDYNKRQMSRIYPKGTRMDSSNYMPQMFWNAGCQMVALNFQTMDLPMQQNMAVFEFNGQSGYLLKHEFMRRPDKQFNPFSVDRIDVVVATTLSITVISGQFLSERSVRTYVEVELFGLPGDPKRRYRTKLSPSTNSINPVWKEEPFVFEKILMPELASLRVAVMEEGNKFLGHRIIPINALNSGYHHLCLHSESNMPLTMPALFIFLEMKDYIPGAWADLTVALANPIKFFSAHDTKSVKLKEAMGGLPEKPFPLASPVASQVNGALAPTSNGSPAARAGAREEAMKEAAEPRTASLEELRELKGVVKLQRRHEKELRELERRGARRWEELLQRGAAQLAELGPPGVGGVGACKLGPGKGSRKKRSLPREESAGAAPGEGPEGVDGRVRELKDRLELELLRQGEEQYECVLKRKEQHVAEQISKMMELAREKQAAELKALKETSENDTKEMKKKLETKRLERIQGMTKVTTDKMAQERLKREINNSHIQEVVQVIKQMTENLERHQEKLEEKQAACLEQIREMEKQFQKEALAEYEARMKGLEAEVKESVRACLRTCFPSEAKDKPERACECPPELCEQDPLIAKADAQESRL
Human γ-synuclein, sequence (O76070 whole entry): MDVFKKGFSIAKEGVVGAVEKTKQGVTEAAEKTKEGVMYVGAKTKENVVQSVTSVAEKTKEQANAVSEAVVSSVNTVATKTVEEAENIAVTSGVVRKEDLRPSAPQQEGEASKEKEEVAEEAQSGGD

fold weaker affinity than for full length CPM-PLCβ2: > 50 fold
Substance: Human γ-synuclein (from UniProt O76070 1-127) (natural protein)
